Measurements as given in patent US20210292414A1 (H LUNDBECK A S, published 2021).

T1: hBack
T1 chimeric human/tetraodon Sortilin extracellular region, BAP tag: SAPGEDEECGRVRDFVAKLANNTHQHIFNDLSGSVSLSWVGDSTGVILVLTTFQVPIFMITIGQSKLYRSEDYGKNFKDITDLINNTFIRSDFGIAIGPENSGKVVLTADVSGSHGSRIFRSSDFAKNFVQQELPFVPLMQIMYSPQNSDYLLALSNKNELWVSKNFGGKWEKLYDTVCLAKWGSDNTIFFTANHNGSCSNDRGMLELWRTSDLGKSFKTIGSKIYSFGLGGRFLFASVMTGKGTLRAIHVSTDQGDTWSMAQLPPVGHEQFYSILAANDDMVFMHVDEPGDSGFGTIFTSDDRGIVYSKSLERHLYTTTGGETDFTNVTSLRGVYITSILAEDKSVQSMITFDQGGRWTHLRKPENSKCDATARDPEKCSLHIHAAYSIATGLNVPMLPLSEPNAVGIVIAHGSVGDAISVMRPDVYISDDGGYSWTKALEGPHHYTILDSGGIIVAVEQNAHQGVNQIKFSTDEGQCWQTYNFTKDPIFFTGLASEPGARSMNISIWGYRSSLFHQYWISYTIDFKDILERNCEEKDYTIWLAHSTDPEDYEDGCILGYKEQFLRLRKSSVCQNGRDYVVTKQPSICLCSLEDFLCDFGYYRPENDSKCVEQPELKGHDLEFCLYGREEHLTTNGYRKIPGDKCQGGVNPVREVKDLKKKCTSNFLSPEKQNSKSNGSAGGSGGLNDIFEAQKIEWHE

T2: Sortilin SORTECDBAP_hB01-05 (human/tetraodon chimera)
T2 construct: Shuffle construct: chimeric human/tetraodon Sortilin ECD with BAP tag
T2 chain: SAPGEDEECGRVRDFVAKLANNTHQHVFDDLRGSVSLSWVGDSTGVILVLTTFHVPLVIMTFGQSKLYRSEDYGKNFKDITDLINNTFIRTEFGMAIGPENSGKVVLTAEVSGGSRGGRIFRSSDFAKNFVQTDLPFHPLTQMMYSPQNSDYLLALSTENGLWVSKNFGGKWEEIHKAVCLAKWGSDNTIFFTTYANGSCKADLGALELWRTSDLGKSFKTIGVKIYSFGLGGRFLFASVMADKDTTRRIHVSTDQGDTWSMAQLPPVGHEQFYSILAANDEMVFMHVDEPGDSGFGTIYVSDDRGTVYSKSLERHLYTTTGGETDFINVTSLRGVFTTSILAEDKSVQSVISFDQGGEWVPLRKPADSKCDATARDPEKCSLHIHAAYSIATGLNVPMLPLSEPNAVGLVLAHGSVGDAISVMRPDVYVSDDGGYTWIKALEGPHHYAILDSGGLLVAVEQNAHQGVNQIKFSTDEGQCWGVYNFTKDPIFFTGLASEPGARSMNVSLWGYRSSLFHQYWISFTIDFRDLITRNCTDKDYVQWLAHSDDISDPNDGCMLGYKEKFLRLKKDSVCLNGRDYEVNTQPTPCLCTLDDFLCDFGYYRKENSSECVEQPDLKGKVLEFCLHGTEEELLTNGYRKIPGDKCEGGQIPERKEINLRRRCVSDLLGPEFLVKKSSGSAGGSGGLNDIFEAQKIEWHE

T3: Sortilin SORTECDBAP_hB06-10 (human/tetraodon chimera)
T3 construct: Shuffle construct: chimeric human/tetraodon Sortilin ECD with BAP tag
T3 chain: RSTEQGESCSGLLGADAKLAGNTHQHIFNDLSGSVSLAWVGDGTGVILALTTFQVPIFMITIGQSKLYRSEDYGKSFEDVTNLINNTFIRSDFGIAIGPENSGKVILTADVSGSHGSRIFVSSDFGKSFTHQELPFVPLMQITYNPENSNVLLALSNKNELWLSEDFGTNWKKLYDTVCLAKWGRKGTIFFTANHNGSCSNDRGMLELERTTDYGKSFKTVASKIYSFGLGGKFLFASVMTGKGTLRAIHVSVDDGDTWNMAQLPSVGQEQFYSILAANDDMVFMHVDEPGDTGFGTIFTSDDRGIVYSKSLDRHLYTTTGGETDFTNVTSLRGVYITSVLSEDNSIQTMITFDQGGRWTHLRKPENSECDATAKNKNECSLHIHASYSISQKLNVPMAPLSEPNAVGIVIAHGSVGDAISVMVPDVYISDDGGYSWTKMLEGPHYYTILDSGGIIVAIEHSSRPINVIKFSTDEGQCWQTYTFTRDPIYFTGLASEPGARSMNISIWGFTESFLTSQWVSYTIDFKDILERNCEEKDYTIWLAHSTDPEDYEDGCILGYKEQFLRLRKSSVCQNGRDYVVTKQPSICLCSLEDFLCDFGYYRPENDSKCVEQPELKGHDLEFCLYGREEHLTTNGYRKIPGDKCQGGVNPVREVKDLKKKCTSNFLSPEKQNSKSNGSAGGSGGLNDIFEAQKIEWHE

T4: Sortilin SORTECDBAP_hB12390 (human/tetraodon chimera)
T4 construct: Shuffle construct: chimeric human/tetraodon Sortilin ECD with BAP tag
T4 chain: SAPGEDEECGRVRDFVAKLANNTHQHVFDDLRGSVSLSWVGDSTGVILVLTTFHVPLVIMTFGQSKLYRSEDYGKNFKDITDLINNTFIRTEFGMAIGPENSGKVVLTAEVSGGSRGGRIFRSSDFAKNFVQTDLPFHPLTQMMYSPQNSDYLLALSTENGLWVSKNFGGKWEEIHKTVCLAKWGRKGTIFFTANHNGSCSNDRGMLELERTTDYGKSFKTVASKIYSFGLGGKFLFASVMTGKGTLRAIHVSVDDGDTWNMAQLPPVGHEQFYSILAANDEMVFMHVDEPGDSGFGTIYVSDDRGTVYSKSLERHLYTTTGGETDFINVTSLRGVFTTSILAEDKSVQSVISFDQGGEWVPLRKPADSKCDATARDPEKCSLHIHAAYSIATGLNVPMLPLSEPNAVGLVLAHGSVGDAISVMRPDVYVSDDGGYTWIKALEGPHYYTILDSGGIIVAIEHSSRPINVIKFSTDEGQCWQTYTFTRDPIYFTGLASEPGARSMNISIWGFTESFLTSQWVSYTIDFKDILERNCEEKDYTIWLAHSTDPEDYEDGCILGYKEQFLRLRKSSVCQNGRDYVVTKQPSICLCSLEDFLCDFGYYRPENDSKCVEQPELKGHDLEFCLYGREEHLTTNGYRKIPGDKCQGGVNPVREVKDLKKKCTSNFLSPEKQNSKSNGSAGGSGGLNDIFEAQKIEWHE


Tests used:
Experiment in all cases: BLI (Octet384RED)
[1] = molecular target: T1, hBack
[2] = molecular target: T2, Sortilin SORTECDBAP_hB01-05
[3] = molecular target: T3, Sortilin SORTECDBAP_hB06-10
[4] = molecular target: T4, Sortilin SORTECDBAP_hB12390

| EC50 [1] | binding result [2] | EC50 [3] | EC50 [4] | Binder |
| --- | --- | --- | --- | --- |
| 1.02 ng/mL | no binding | 0.87 ng/mL | 0.86 ng/mL | Antibody 6003-1286 (antibody, human IgG1, V domains shown) VH: EVQLLESGGGLVQPGGSLRLSCAASGFTFSSYAMSWVRQAPGKGLEWVSTISGRGGNTYYADSVKGRFTISRDNSKNTLYLQMNSLRAEDAAVYYCANIYSHYWYFDLWGRGTLVTVSS VL: EIVLTQSPATLSLSPGERATLSCRASQSVNSYLAWYQQKPGQAPRLLIYDASNRATGIPARFSGSGSGTDFTLTISSLEPEDFAVYYCQQRSNWPLTFGGGTKVEIK |
| 4.07 ng/mL | no binding | 2.62 ng/mL | 3.63 ng/mL | Antibody 6003-1277 (antibody, V domains shown) VH: QVQLVQSGAEVKKPGASVKVSCKTSGYTFTHYGISWVRQAPGQGLEWMGWINTYNGNTKYAQKLQGRVTMTTDTSTSTAYMELRSLRSDDTAVYYCASLGRNFDYWGQGTLVTVSS VL: not shown |
| 1.6 ng/mL | no binding | 1.34 ng/mL | 1.93 ng/mL | Antibody 6003-381 (antibody, human IgG1, V domains shown) VH: QVQLVESGGGVVQPGRSLRLSCAASGFTFSNYVMHWVRQAPGKGLEWVAAISYNGNNKYYADSVKGRFTISRDNSKNTLYLQMNSLRAEDTAVSYCAKGLNDAFDIWGQGTMVTVSS VL: not shown |
| 2.37 ng/mL | no binding | 1.68 ng/mL | 2.21 ng/mL | IgG1-6003-408 (antibody, V domains shown, also called Antibody 6003-408) VH: EVQLVESGGGLVKPGGSLRLSCAASGFTFSSYSMNWVRQAPGKGLEWVSSISSSSSYIYYADSVKGRFTISRDNAKNSLYLQMNSLRAEDTAVYYCARRRIAAAGTGYGAFDIWGQGTMVTVSS VL: ARQLTQSPSSLSASVGDRVTITCRASQGITSALAWYQQKPGKVPKLLIYDASSLESGVPSRFSGSGSGTDFTLTISSLQPEDFATYYCQQFNGYPMFSFGQGTKLEII |

The next lines start with the binder.

| Binder | EC50 [1] | binding result [2] | EC50 [3] | EC50 [4] |
| --- | --- | --- | --- | --- |
| Antibody 6003-030 (antibody, human IgG1, V domains shown, Human antibody (HuMab); also called antibody 30; mAb30) VH: EVQVLESGGGLVQPGGSLRLSCAASGFTFSSYAMSWVRQAPGKGLEWVSTISGRGGNTYYADSVKGRFTISRDNSKNTLYLQMDSLRAEDTAVYYCAIIPSLYWYFDLWGRGTLVTVSS VL: EIVLTQSPATLSLSPGERATLSCRASQSVSSYLAWYQQKPGQAPRLLIYDASNRATGIPARFSGSGSGTDFTLTISSLEPEDFAVYYCQQRSNWPLTFGGGTKVEIK | 0.85 ng/mL | no binding | 0.74 ng/mL | 0.82 ng/mL |
| Antibody 6003-028 (antibody, human IgG1, V domains shown) VH: EVQLLESGGGLVQPGGSLRLSCAASGFTFSSYAMSWVRQAPGKGLEWVSTISGRGGSTYYADSVKGRFTISRDNSKNTLYLQMNSLRAEDTAVYYCANLYSNYWYFDLWGRGTLVTVSS VL: EIVLTQSPATLSLSPGERATLSCRASQSVSSFLAWYQQKPGQAPRLLIYDASNRATGIPARFSGSGSGTDFTLTISSLEPEDFAVYYCQQRSNWPLTFGGGTKVEIK | 1.87 ng/mL | no binding | 1.56 ng/mL | 1.86 ng/mL |
| Antibody 6003-056 (antibody, human IgG1, V domains shown) VH: EVQVLESGGGLVQPGGSLRLSCVASGFTFSSYAMHWVRQAPGKGLEWVSAISGRGGSTYYADSVKGRFTISRDNSKNTLYLQMNSLRAEDTAVYYCAIIPSLYWYFDLWGRGTLVTVSS VL: EIVLTQSPATLSLSPGERATLSCRASQSVSSFLAWYQQKPGQAPRLLIYDASNRATGIPARFSGSGSGTDFTLTISSLEPEDFAVYYCQQRSNWPLTFGGGTKVEIK | 1.14 ng/mL | no binding | 0.97 ng/mL | 1.42 ng/mL |
| Antibody 6003-083 (antibody, human IgG1, V domains shown) VH: EVQLLESGGGLVQPGGSLRLSCAASGFTFSSYAMSWVRQAPGKGLEWVSTISGRGGSTYYADSVKGRFTISRDNSKNTLYLQMNSLRAEDTAVYYCAIVATMYWYFDLWGRGTLVTVSS VL: EIVLTQSPATLSLSPGERATLSCRASQSVSSYLAWYQQKPGQAPRLLIYDASNRATGIPARFSGSGSGTDFTLTISSLEPEDFAVYYCQQRSNWPITFGQGTRLEIK | 1.34 ng/mL | no binding | 0.76 ng/mL | 0.86 ng/mL |
